Experimental data reported in article PMC6769490, “Protein Engineering of Multi-Modular Transcription Factor Alcohol Dehydrogenase Repressor 1 (Adr1p), a Tool for Dissecting In Vitro Transcription Activation” (Biomolecules, 2019).
Several values for one entry are separate records, joined by “and”; a condition that tells them apart may be missing. Identical values can stand only once.

Columns and labels:
[1] = biological target: T1, Adr1-DBD (untagged) (Saccharomyces cerevisiae, UniProt P07248 75-178); test: EMSA; no CHAPS, Zn acetate; mostly monomer; 40 mM Na phosphate pH 7.5, 40 mM NaCl, 10% glycerol, 18 uM Zn acetate (+/- 5 mM CHAPS, DTT, spermine), 30 min 4 C; HPLC-purified: 20 mM phosphate pH 7.0, 40 mM; settings: protein: recombinant; tags: none; label: 33P or none (ethidium bromide); 5' overhang 1 nt at both ends
T1 sequence: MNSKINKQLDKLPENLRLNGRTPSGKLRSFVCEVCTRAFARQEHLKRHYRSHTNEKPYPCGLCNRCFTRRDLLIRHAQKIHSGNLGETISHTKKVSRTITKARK

[2] = biological target: T2, miniAdr1-BL (untagged) (Saccharomyces cerevisiae, UniProt P07248 75-471, del1-74;del179-418;del472-1323); test: EMSA; no CHAPS, Zn acetate; mostly dimer; 40 mM Na phosphate pH 7.5, 40 mM NaCl, 10% glycerol, 18 uM Zn acetate (+/- 5 mM CHAPS, DTT, spermine), 30 min 4 C; HPLC-purified: 20 mM phosphate pH 7.0, 40 mM; settings: protein: recombinant; tags: none; chain copies: 2; label: 33P or none (ethidium bromide); 5' overhang 1 nt at both ends
T2 sequence: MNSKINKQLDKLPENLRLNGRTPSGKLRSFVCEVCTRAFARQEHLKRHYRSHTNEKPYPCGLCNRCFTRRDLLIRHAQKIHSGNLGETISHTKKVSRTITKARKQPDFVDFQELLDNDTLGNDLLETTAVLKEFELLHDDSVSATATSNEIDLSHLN

[3] = biological target: T3, His-Adr1-165 (Saccharomyces cerevisiae, UniProt P07248 1-165); test: EMSA; CM + heparin purified; monomer and dimer; 40 mM Na phosphate pH 7.5, 40 mM NaCl, 10% glycerol, 18 uM Zn acetate (+/- 5 mM CHAPS, DTT, spermine), 30 min 4 C; HPLC-purified: 20 mM phosphate pH 7.0, 40 mM; settings: protein: recombinant; tags: His-tag; label: 33P or none (ethidium bromide); 5' overhang 1 nt at both ends
T3 sequence: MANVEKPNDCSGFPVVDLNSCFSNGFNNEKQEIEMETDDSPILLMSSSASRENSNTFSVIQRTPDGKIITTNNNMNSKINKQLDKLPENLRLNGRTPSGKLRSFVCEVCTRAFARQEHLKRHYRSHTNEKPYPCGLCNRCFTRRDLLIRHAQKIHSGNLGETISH

[4] = biological target: T2, miniAdr1-BL (untagged); test: EMSA; 5 mM CHAPS, Zn acetate; protein 3.16e-8 to 1e-6 M, DNA 1e-8 M; 40 mM Na phosphate pH 7.5, 40 mM NaCl, 10% glycerol, 18 uM Zn acetate (+/- 5 mM CHAPS, DTT, spermine), 30 min 4 C; HPLC-purified: 20 mM phosphate pH 7.0, 40 mM; settings: protein: recombinant; tags: none; chain copies: 2; label: 33P (5' kinase label); self-complementary duplex, 5' overhang 4 nt at both ends
[5] = biological target: T1, Adr1-DBD (untagged); test: EMSA; 5 mM CHAPS, Zn acetate; two smeared bands; 40 mM Na phosphate pH 7.5, 40 mM NaCl, 10% glycerol, 18 uM Zn acetate (+/- 5 mM CHAPS, DTT, spermine), 30 min 4 C; HPLC-purified: 20 mM phosphate pH 7.0, 40 mM; settings: protein: recombinant; tags: none; label: 33P (5' kinase label); self-complementary duplex, 5' overhang 4 nt at both ends
[6] = biological target: T2, miniAdr1-BL (untagged); test: EMSA; 5 mM CHAPS; hairpin not competent for binding; 40 mM Na phosphate pH 7.5, 40 mM NaCl, 10% glycerol, 18 uM Zn acetate (+/- 5 mM CHAPS, DTT, spermine), 30 min 4 C; HPLC-purified: 20 mM phosphate pH 7.0, 40 mM; settings: protein: recombinant; tags: none; chain copies: 2; label: 33P; hairpin of a single strand, 5' overhang 4 nt
[7] = biological target: the molecule itself; test: native gel or EMSA; N-PAGE/EMSA with half site dsDNA (one binding site), no CHAPS; 20, 40 and 80 pmol protein; stoichiometric mixture of both proteins (40 pmol) in lane 7
[8] = biological target: the molecule itself; test: SEC; miniAdr1-BL alone, freshly purified and concentrated, no DNA; Superdex G75 on HPLC, 50 mM Na/K phosphate pH 6.9, 150 mM NaCl, 4 mM TCEP, 5 mM CHAPS, 5% glycerol, 3.5 mM spermine, 0.018 mM Zn acetate; 0.4 mL/min; masses from a calibration curve
[9] = biological target: the molecule itself; test: native gel or EMSA; DNA binding assay with half site dsDNA; partially purified His-tagged Adr1-165 from bacteria (Supplementary Figure S1d, lanes 12-14)

B1: Half site UAS1 (dsDNA)
DNA 1: TCCGGGCATCTCCAACTTA
DNA 2: CTAAGTTGGAGATGCCCGG
binding result [1]: binds | binding result [2]: binds | binding result [3]: binds

B2: Palindromic UAS1 (dsDNA)
DNA 1: CCGGCCTCTCCAACTTATAAGTTGGAGAGG
DNA 2: B2 DNA 1
binding result [4]: binds | binding result [5]: binds

CCGGCCTCTCCAACTTATAAGTTGGAGAGG (structured_DNA) [Palindromic UAS1 hairpin]
binding result [6]: no binding

B3: Adr1-DBD (residues 75-178), untagged (domain or fragment, Saccharomyces cerevisiae, UniProt P07248 75-178, looked up)
chain: T1 sequence
notes: Alcohol dehydrogenase repressor 1 (Adr1p), Saccharomyces cerevisiae, UniProt P07248; Printed mass 12.4 kDa; also called construct (5); source: Komagataella pastoris X-33, purified (CM sepharose, SEC)
stoichiometry N [7]: 2

B4: miniAdr1-BL (Adr1_Δ179-418), untagged (domain or fragment, Saccharomyces cerevisiae, UniProt P07248 75-471, looked up)
chain: T2 sequence
notes: Alcohol dehydrogenase repressor 1 (Adr1p), Saccharomyces cerevisiae, UniProt P07248; residues 75-178 (PAR-TAD I with the basic linker 158-178) directly linked to residues 419-471 (core of TAD III); TAD I and TAD III fragments were ligated through inserted BamHI sites; Printed mass 18 kDa; also called construct (4); basic linker construct; source: Komagataella pastoris X-33, cytoplasm, purified …
stoichiometry N [7]: 2 | stoichiometry N [8]: ~2 and ~3

B5: His-tagged Adr1-165 (residues 1-165) (domain or fragment, Saccharomyces cerevisiae, UniProt P07248 1-165, looked up)
chain: T3 sequence
notes: Alcohol dehydrogenase repressor 1 (Adr1p), Saccharomyces cerevisiae, UniProt P07248; residues 1-165, comprising only TAD I; also called HisAdr1-165; His-Adr1-165; source: E. coli BL21(DE3), pET28b, partially purified
stoichiometry N [9]: 2
